# B1: TOX (other)
# chain: MDVRFYPPPAQPAAAPAAPCLGPSPCLDPYYCNKFDGENMYMSMTEPSQDYVPASQSYPGPSLESEDFNIPPITPPSLPDHSLVHLNEVESGYHSLCHPMNHNGLLPFHPQTMDLPEITVSNMLGQDGALLSNSISVMQEIGNAEGAQYSSHPQMAAMRPRGQPTDIRQQASMMQPGQLTTINQSQLSAQLGLNMGGTNVAHNSPSPPGSKSATPSPSSSVHEDECEDASKINGGEKRPASDMGKKPKTPKKKKKKDPNEPQKPVSAYALFFRDTQAAIKGQNPNATFGEVSKIVASMWDGLGEEQKQVYKKKTEAAKKEYLKQLAAYRASLVSKSYTDPVDVKTSQPPQLVNSKPSVFHGPSQAHSALYLSSHYHQQPGMTPQLTAMHPSLPRNIAPKPNNQMPVTVSIANMAVSPPPPLQISPPLHQHLSMQQHQSLAMQQPLGSQLPMQVQTALHSPTMQQGFTLQPDYQTIINPTSTAAQVVTQAMEYVRSGCRNPPPQPVDWSTDYCSSGGMQRDKALYLT
# notes: Bait of the immunoprecipitations (anti-TOX ab155768, Abcam); also called TOX protein
# Biological target: histone H4 (UniProt P62806 2-103)
# Experiment: IP with anti-TOX from EL4 lysate, Western blot (FIG. 60L)
binder,measurement,value
B1,binding result,binds
